Data on 8 molecules can be found in patent US20110301335A1 (published 2011).

For the assay, the target named is T1, human TNFR1 on MRC-5 cells (human, UniProt P19438 30-455).
T1 sequence (looked up): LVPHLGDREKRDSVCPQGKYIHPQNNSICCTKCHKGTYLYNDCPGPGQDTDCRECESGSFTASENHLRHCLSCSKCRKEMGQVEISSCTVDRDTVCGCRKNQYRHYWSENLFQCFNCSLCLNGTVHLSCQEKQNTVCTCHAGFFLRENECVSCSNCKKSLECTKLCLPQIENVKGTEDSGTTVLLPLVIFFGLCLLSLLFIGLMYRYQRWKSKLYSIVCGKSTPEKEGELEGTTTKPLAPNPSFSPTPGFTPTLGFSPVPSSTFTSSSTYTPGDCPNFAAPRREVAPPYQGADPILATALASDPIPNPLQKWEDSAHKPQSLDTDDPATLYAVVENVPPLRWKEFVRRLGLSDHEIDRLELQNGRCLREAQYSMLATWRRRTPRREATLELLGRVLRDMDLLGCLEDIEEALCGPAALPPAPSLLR
In words: cell-based or functional assay.

B1: DMS0184 (bispecific antibody)
chain: EVQLLESGGGLVQPGGSLRLSCAASGFTFVKYSMGWVRQAPGKGPEWVSQISNTGDRTYYADSVKGRFTISRDNSKNTLYLQMNSLRAEDTAVYYCAIYTGRWEPFDYWGQGTLVTVSSASTSGPSDIQMTQSPSSLSASVGDRVTITCRASRPIGTTLSWYQQKPGKAPKLLIWFGSRLQSGVPSRFSGSGSGTDFTLTISSLQPEDFATYYCAQAGTHPTTFGQGTKVEIKR
B1 displayed an ND50 (MRC5) of 19 nM.

B2: DMS0168 (bispecific antibody)
chain: EVQLLESGGGLVQPGGSLRLSCAASGFTFVKYSMGWVRQAPGKGLEWVSQISNTADRTYYAHSVKGRFTISRDNSKNTLYLQMNSLRAEDTAVYYCAIYTGRWVPFEYWGQGTLVTVSSASTSGPSDIQMTQSPSSLSASVGDRVTITCRASQSIIKHLKWYQQKPGKAPKLLIYGASRLQSGVPSRFSGSGSGTDFTLTISSLQPEDFATYYCQQGARWPQTFGQGTKVEIKRAAAEQKLISEEDLN
Molecule B2 displayed an ND50 (MRC5) of 16 nM.

B3: DMS0188 (bispecific antibody)
chain: EVQLLESGGGLVQPGGSLRLSCAASGFTFVKYSMGWVRQAPGKGPEWVSQISNTGDRTYYADSVKGRFTISRDNSKNTLYLQMNSLRAEDTAVYYCAIYTGRWEPFDYWGQGTLVTVSSASTSGPSDIQMTQSPSSLSASVGDRVTITCRASRPIGTMLSWYQQKPGKAPKLLILFGSRLQSGVPSRFSGSGSGTDFTLTISSLQPEDFATYYCAQAGTHPTTFGQGTKVEIKRAAAEQKLISEEDLN
For B3, the ND50 (MRC5) amounted to 17 nM.

B4: DMS0169 (bispecific antibody)
chain: EVQLLESGGGLVQPGGSLRLSCAASGFTFVKYSMGWVRQAPGKGLEWVSQISNTADRTYYAHSVKGRFTISRDNSKNTLYLQMNSLRAEDTAVYYCAIYTGRWVPFEYWGQGTLVTVSSASTSGPSDIQMTQSPSSLSASVGDRVTITCRASRPIGTMLSWYQQKPGKAPKLLILFGSRLQSGVPSRFSGSGSGTDFTLTISSLQPEDFATYYCAQAGTHPTTFGQGTKVEIKRAAAEQKLISEEDLN
Molecule B4 showed an ND50 (MRC5) of 2.7 nM.

B5: DMS0163 (bispecific antibody)
chain: EVQLLESGGGLVQPGGSLRLSCAASGFTFVKYSMGWVRQAPGKGPEWVSQISNTGDRTYYADSVKGRFTISRDNSKNTLYLQMNSLRAEDTAVYYCAIYTGRWEPFDYWGQGTLVTVSSASTSGPSDIQMTQSPSSLSASVGDRVTITCRASRPIGTMLSWYQQKPGKAPKLLILAFSRLQSGVPSRFSGSGSGTDFTLTISSLQPEDFATYYCAQAGTHPTTFGQGTKVEIKRAAAEQKLISEEDLN
For B5, the ND50 (MRC5) worked out at 12 nM.

B6: DMS0182 (bispecific antibody)
chain: EVQLLESGGGLVQPGGSLRLSCAASGFTFVKYSMGWVRQAPGKGPEWVSQISNTGDRTYYADSVKGRFTISRDNSKNTLYLQMNSLRAEDTAVYYCAIYTGRWEPFDYWGQGTLVTVSSASTDIQMTQSPSSLSASVGDRVTITCRASRPIGTTLSWYQQKPGKAPKLLIWFGSRLQSGVPSRFSGSGSGTDFTLTISSLQPEDFATYYCAQAGTHPTTFGQGTKVEIKRAAAEQKLISEEDLN
B6 came in with an ND50 (MRC5) of 6 nM.

B7: DMS0186 (bispecific antibody)
chain: EVQLLESGGGLVQPGGSLRLSCAASGFTFVKYSMGWVRQAPGKGPEWVSQISNTGDRTYYADSVKGRFTISRDNSKNTLYLQMNSLRAEDTAVYYCAIYTGRWEPFDYWGQGTLVTVSSASTDIQMTQSPSSLSASVGDRVTITCRASRPIGTMLSWYQQKPGKAPKLLILFGSRLQSGVPSRFSGSGSGTDFTLTISSLQPEDFATYYCAQAGTHPTTFGQGTKVEIKRAAAEQKLISEEDLN
For B7, the ND50 (MRC5) came to 20 nM.

B8: DMS0111 (bispecific antibody)
chain: EVQLLESGGGLVQPGGSLRLSCAASGFTFVKYSMGWVRQAPGKGLEWVSQISNTADRTYYAHSVKGRFTISRDNSKNTLYLQMNSLRAEDTAVYYCAIYTGRWVPFEYWGQGTLVTVSSASTDIQMTQSPSSLSASVGDRVTITCRASRPIGTTLSWYQQKPGKAPKLLILWNSRLQSGVPSRFSGSGSGTDFTLTISSLQPEDFATYYCAQAGTHPTTFGQGTKVEIKR
The molecule B8 displayed an MRC5 (ND50 in nM) of 1.6 nM.
